Assay results: US20190309044A1, “POLYPEPTIDES AND USES THEREOF AS A DRUG FOR TREATMENT OF AUTOIMMUNE DISORDERS” (Compugen Ltd., priority 2017, published 2019)

Columns and labels:
NOD mice = assay: Type 1 diabetes incidence in NOD mice; assay type: in vivo, mouse; conditions: Study III; p<0.001
Protocol: The effect of C1ORF32 ECD-Fc treatment on modulation of disease incidence was tested in NOD mice, which spontaneously develop a T1D disease. In NOD mice, autoreactive CD4+ can be observed within the β-islets as early as 2 weeks of age (Yang et al., Immunity. 1996 February; 4(2):189-94), and by 10 weeks of age, when the treatment with C1ORF32 ECD-Fc (SEQ ID NO: 42) began in the present experiments, NOD mice develop peri-insulitis and β-cell loss (Jimeno et al., Immunology and Cell Biology. (2010) 88, 734-745).
Materials: C1ORF ECD-Fc (SEQ ID NO:42) was used in these studies, as described below. Control Ig was mouse IgG2a from BioXcell (Cat# BE0085). NOD mice were purchased from Jackson labs, and blood glucose was measured via sampling a small drop of blood from the tail vein.
Methods: Six week old NOD mice were purchased from Jackson labs. […] Blood glucose levels were monitored weekly from 8 weeks of age until the mice reached […] of age as detailed below. Mice were considered diabetic upon having two consecutive blood glucose readings of >250 mg/dL. Diabetic mice were sacrificed on the day of the second high glucose level reading. Blood glucose levels were obtained from the tail vein, and the level of blood glucose measured via use of a OneTouch. […]

[1] = system: total splenocytes and lymph node cells; assay: Ex vivo recall responses, adoptive transfer R-EAE; assay type: in vivo, mouse; conditions: day 45; treatment from onset of remission
Protocol: On day 45 (unless otherwise indicated) following cell transfer, spleen and cervical lymph nodes or CNS from 3 representative mice of each group were collected, and the total cells were activated ex vivo at 0.5×10^6 cells per well with either OVA323-339, PLP139-151, PLP178-191, MBP84-104 (20 ug/ml), or anti-CD3 (1 ug/ml). Two sets of cultures were set up side-by-side. One set was pulsed with 1uCi of tritiated thymidine at 24 hours and harvested at 72 hours to determine cell proliferation. In the second set of cultures, supernatants were collected at 72 hours and tested for peptide-specific cytokine production as determined by LiquiChip.

B1: C1ORF32 ECD-Fc (SEQ ID NO:42): human-mouse fusion protein: human C1ORF32 ECD fused to mouse immunoglobulin Fc (SEQ ID NO:42) (protein)
chain: LQVTVPDKKKVAMLFQPTVLRCHFSTSSHQPAVVQWKFKSYCQDRMGESLGMSSTRAQSLSKRNLEWDPYLDCLDSRRTVRVVASKQGSTVTLGDFYRGREITIVHDADLQIGKLMWGDSGLYYCIITTPDDLEGKNEDSVELLVLGRTGLLADLLPSFAVEIMGSENLYFQGSGEPRGPTIKPCPPCKCPAPNLLGGPSVFIFPPKIKDVLMISLSPIVTCVVVDVSEDDPDVQISWFVNNVEVHTAQTQTHREDYNSTLRVVSALPIQHQDWMSGKEFKCKVNNKDLPAPIERTISKPKGSVRAPQVYVLPPPEEEMTKKQVTLTCMVTDFMPEDIYVEWTNNGKTELNYKNTEPVLDSDGSYFMYSKLRVEKKNWVERNSYSCSVVHEGLHNHHTTKSFSRTPGK
modifications: Fusion protein human C1ORF32-ECD fused to mouse IgG2a Fc
**Q.** Which “incidence of T1D in comparison to Control Ig and PBS” value (NOD mice) does the source give for B1 here?
**A.** significantly decreased incidence of T1D

**Q.** What about the “recall responses, cellular proliferation of splenocytes and lymph node cells” value [1] of the same molecule?
**A.** decreased level of cellular proliferation
